Measured values: patent US20220143145A1

Assays:
[1] = molecular target: IL10 receptor (IL10Rα) on mouse sensory neurons (mouse) (UniProt Q61727); assay: cell-based or functional assay
[2] = molecular target: IL4 receptor (IL4Rα) on mouse sensory neurons (mouse) (UniProt P16382); assay: cell-based or functional assay
UniProt P16382, sequence (P16382 26-810): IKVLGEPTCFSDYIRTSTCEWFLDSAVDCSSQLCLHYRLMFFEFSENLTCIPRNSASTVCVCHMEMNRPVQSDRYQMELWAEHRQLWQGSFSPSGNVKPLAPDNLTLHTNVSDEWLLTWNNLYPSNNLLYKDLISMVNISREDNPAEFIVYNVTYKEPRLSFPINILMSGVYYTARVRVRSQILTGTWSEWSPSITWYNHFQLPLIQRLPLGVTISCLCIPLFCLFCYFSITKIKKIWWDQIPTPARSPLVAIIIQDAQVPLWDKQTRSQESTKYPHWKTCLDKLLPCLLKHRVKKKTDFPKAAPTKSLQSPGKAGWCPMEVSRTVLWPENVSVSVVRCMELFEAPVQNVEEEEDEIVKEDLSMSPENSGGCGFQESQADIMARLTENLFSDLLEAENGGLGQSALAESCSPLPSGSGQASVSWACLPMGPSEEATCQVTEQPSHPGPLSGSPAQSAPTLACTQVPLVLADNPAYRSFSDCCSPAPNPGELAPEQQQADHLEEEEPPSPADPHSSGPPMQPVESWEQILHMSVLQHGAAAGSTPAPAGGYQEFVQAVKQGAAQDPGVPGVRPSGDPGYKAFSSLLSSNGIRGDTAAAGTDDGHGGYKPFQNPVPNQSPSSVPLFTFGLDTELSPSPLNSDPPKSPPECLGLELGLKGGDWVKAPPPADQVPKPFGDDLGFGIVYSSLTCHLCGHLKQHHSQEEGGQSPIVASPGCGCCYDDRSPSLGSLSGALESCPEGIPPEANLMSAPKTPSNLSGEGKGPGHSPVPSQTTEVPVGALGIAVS

UniProt Q61727, sequence (Q61727 17-575): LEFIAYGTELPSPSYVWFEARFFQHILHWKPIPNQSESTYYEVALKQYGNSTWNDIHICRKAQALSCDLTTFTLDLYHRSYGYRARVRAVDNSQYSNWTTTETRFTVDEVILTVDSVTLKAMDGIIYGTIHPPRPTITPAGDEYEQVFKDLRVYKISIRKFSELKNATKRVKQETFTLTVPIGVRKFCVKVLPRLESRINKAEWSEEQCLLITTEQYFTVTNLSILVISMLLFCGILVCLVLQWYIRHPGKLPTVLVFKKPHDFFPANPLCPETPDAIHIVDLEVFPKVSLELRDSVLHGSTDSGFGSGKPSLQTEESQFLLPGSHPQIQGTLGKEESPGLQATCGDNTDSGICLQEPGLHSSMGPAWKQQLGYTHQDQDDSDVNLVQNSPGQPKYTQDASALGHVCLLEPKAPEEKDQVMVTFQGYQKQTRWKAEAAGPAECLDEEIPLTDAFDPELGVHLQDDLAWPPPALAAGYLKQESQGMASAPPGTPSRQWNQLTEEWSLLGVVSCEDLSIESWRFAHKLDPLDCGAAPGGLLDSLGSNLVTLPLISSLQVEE

Substance: IL4-10 fusion protein (ligand)
- concentration that completely reversed TNFα-induced sensitization of capsaicin-evoked calcium influx [1]: 3 nM
- concentration that completely reversed TNFα-induced sensitization of capsaicin-evoked calcium influx [2]: 3 nM
